Data as given in PMC7577971, “Antibody-mediated disruption of the SARS-CoV-2 spike glycoprotein” (Nature Communications, 2020).

Molecular target: T1, stabilised, trimeric ectodomain of the SARS-CoV-2 spike glycoprotein (FUR 2P) (SARS-CoV-2, Wuhan-Hu-1 (YP_009724390.1), R682S | R685S | K986P | V987P)
T1 construct: also called S trimer; trimeric spike
Assay: BLI
Details: both partners purified

B1: CR3022 Fab (tag cleaved with TEV, as used in binding assays) (Fab, V domains shown)
VH: QMQLVQSGTEVKKPGESLKISCKGSGYGFITYWIGWVRQMPGKGLEWMGIIYPGDSETRYSPSFQGQVTISADKSINTAYLQWSSLKASDTAIYYCAGGSGISTPMDVWGQGTTVTVAS
VL: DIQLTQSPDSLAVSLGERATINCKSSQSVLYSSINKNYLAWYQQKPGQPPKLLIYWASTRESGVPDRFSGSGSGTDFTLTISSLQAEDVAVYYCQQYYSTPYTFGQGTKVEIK
  Kd: 80 nM
